Data on one protein can be found in paper PMC11845978 (Protein Science : A Publication of the Protein Society, 2025).

This series concerns the molecule itself. As to the kind of experiment: […].

B1: Hendra virus PNT3 (aa 200–310 of the P/V/W proteins), wild type, full-length PNT3 (domain or fragment)
chain: TPTEEPPVIPEYYYGSGRRGDLSKSPPRGNVNLDSIKIYTSDDEDENQLEYEDEFAKSSSEVVIDTTPEDNDSINQEEVVGDPSDQGLEHPFPLGKFPEKEETPDVRRKDS
As to B1, the binding result is “binds”.
